This note sets out measurements from patent US20190112392A1 (Ablynx, published 2019).

The target in experiment [1] is T1, soluble recombinant cynomolgus TCR alpha/beta-zipper protein (cynomolgus/rhesus monkey).
T1 construct: Made in house in CHOK1SV cells; extracellular domains fused to a zipper protein; also called cynoTCR-zipper protein; not shown: zipper protein (O'Shea et al. 1993)
T1 V domain 1: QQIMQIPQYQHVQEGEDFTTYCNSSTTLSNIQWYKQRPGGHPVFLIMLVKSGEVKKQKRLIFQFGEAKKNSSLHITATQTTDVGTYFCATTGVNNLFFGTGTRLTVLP
T1 V domain 2: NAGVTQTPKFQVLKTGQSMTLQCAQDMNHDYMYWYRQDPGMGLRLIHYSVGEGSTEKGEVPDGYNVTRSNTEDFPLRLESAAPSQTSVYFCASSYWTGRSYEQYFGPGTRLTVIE
In words: ELISA, coated soluble cynomolgus TCR-zipper. How it is done:
Quality of the TCR α/β zipper proteins was assessed in an ELISA binding assay. Maxisorp 96-well ELISA plates (Nunc) were coated with 2 μg/mL soluble recombinant human TCR α/β (2XN9)-zipper protein or soluble recombinant cynomolgus TCR α/β-zipper protein. After an overnight incubation, plates were washed and blocked with PBS+1% casein for 1 h at room temperature. Next, plates were incubated with serial dilutions of either a functional flag tagged Nanobody or the functional mouse IgG anti-non-human primate/Rat TCRα/β antibody, clone R73 (eBioscience 16-5960) for 1 h at room temperature while shaking, washed again and incubated with mouse anti-flag-HRP (Sigma, #A8592) respectively rabbit anti-mouse-HRP (Dako, # P0260). After 1 h, TMB One Solution (Promega #G7431) was added. The reaction was stopped with 2M H₂SO₄ and the dose dependent binding was determined by measuring the OD at 450 nm using the Tecan sunrise 4 (FIG. 2).
Binding of purified monovalent anti-TCR Nanobodies to soluble recombinant cynomolgus TCR c/3 protein was evaluated in ELISA (as described in Example 1.2) using 2 μg/ml directly coated recombinant soluble cynomolgus TCR-α/β zipper protein.
For orientation: An ELISA detects its analyte on a solid surface through an enzyme-linked reagent.

Experiment [2] has as its target T2, T cell receptor alpha/beta on purified primary human T cells (human, UniProt P01848 1-140; P01850 1-176).
T2 construct: whole, on cells; also called human primary T cells
T2 TCR alpha (looked up): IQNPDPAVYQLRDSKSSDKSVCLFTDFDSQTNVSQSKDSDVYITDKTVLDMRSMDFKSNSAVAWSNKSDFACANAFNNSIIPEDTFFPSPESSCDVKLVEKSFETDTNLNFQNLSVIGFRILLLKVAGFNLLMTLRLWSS
T2 TCR beta (looked up): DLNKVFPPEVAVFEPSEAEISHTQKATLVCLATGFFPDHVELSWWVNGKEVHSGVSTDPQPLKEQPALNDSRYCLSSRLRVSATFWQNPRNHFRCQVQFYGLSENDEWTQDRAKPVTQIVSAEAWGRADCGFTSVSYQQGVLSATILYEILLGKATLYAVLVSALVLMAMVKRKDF
Description: flow cytometry, purified primary human T cells. How it is done: Periplasmic extracts were screened for cell expressed TCR/CD3 binding using human TCR/CD3 transfected CHO-K1 or HEK293H cells and the respective CHO-K1 or HEK293H reference cell line in a mixed cell line setup. To this end, a large batch of the reference cell lines were labelled with 8 μM PKH26 and frozen. 5×10⁴ PKH labelled reference cells were mixed with 5×10⁴ target cells and incubated with periplasmic extracts for 30 min at 4′C, and washed 3 times. […] Samples were washed, resuspended in FACS Buffer (D-PBS from Gibco, with 10% FBS from Sigma and 0.05% sodium azide from Merck) and then analysed via a BD FACSArray. […] In this gate, 20,000 cells were counted during acquisition. Based on PKH26-SSC distribution, the PKH labelled parental population and the human TCR/CD3 unlabelled target population was selected. For these 2 populations the mean APC value was calculated.
Binding of purified monovalent anti-TCR Nanobodies to human TCR(2XN9)/CD3 expressed on CHO-K1 cells and to purified primary human T cells was evaluated in flow cytometry as outlined in Example 4.1.
A general note: In flow cytometry, cells or beads pass a laser one at a time.

The target in experiment [3] is T3, human CD3 expressed on HEK293H cells (human, UniProt P04234 22-171; P09693 23-182; P07766 23-207; P20963 22-164).
T3 construct: also called HEK293H human CD3; HEK293H CD3
T3 sequence (P04234 22-171 limits assumed, chain 1 of 4): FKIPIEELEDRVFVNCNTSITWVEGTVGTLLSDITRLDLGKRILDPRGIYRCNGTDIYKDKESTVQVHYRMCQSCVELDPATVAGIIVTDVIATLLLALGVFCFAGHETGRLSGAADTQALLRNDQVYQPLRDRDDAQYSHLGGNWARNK
T3 sequence (P09693 23-182 limits assumed, chain 2 of 4): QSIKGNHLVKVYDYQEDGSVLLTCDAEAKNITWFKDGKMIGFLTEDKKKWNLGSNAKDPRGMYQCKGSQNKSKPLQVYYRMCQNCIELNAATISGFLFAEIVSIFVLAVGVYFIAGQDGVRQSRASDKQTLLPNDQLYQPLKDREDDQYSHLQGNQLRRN
T3 sequence (P07766 23-207 limits assumed, chain 3 of 4): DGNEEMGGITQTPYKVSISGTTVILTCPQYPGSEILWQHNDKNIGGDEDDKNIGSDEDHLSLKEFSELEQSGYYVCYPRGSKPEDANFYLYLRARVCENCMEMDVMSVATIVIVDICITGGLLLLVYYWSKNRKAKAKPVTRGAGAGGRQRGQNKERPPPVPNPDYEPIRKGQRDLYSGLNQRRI
T3 sequence (P20963 22-164 limits assumed, chain 4 of 4): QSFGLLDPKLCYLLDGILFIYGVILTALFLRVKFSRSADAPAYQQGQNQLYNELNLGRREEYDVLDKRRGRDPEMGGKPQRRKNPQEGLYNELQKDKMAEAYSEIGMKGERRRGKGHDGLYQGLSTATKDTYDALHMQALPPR
Description: flow cytometry, HEK293H human CD3 cells. The protocol:
(§1) Binding of purified monovalent anti-TCR Nanobodies to human TCR(2IAN)/CD3 expressed on HEK293H cells was evaluated and compared with the binding to HEK293H cells transfected with human CD3 in flow cytometry, as outlined in Example 5. Dilution series of anti-TCR Nanobodies starting from 1 μM were applied to the cells. The parental HEK293H cell line was included as TCR/CD3 negative cell line.
Nanobodies clearly bound to human TCR(2IAN)/CD3 expressed on HEK293H but not to the HEK293H cells transfected with human CD3 only, nor to the HEK293H parental cell line. The EC50 values obtained from the dose response curve are depicted in Table C-2.

Experiment [4] deals with T3, human CD3 expressed on HEK293H cells. In words: flow cytometry on HEK293H human CD3 cells, MCF. How it is done: as §1
For experiment [5], the target named is T4, EGFR on cells (UniProt P00533 25-1210, limits assumed). In words: cell-based or functional assay.
The target of experiment [6] is T4, EGFR on cells. In words: flow cytometry, LS174T cells. Further details: Top: unit not given here.
In experiment [7] the target is T4, EGFR on cells. Description: flow cytometry, LoVo cells. Set-up: Top: unit not given here.
For experiment [8], the target named is T4, EGFR on cells. Description: flow cytometry, HER14 cells.
The target of experiment [9] is T4, EGFR on cells. In words: cell-based or functional assay. The source holds these as a separate data set.
In another experiment the target is HER2 on cells (human, UniProt P04626 23-1255). Description: cell-based or functional assay.
For experiment [10], the target named is T cell receptor alpha/beta on primary cynomolgus T cells (cynomolgus). In words: cell-based or functional assay.

As a reminder, the EC50 is the concentration at which the effect is half-maximal.

B1: T0170068G05 (VHH)
VHH: VQLVEESGGGLVQPGGSLRLSCITSGETFKINIWGWYRQAPGKQRELVASLTIGGATNYADSVKGRFTISEDSAKNTVYLQMNSLKPEDTAVYFCNAKSRIYPYDYWGRGTQVTVSS
notes: Monovalent anti-TCR Nanobody, cluster B; expressed in E. coli as triple Flag, His6-tagged protein; also called T0170PMP068G05; not shown: C-terminal triple Flag-His6 tag of the E. coli-made monovalent Nanobody
As to B1, the EC50 is 87 nM in experiment [1] and > 100 nM in experiment [2]. Besides, the “MCF at 1 µM” value in experiment [3] came out at 240 MCF. Further, the binding result in experiment [4] is on record as “no binding (tested: 1e-6 M)”.

B2: T017000110 (other)
chain: EVQLVESGGGLVQAGGSLRLSCAASGRTFSSYVMGWFRQATGKEREFVATIAWDSGSTYYADSVKGRFTISRDNAKNTVHLQMNSLKPEDTAVYYCAASYNVYYNNYYYPISRDEYDYWGQGTLVTVSSGGGGSGGGGSGGGGSGGGGSGGGGSGGGGSGGGGSEVQLVESGGGSVQAGGSLRLSCAASGYTIGPYCMGWFRQAPGKEREGVAAINMGGGITYYADSVKGRFTISQDNAKNTVYLLMNSLEPEDTAIYYCAADSTIYASYYECGHGLSTGGYGYDSWGQGTLVTVSSGGGGSGGGGSGGGGSGGGGSGGGGSGGGGSGGGGSEVQLVESGGGLVQPGGSLRLSCVASGDVHKINFLGWYRQAPGKEREKVAHISIGDQTDYADSAKGRFTISRDESKNMVYLQMNSLKPEDTAVYFCRAFSRIYPYDYWGQGTLVTVSSGAADYKDHDGDYKDHDIDYKDDDDKGAAHHHHHH
notes: EGFR x irrelevant (anti-egg lysozyme) x TCR Nanobody construct; entry includes the FLAG3-HIS6 tag; also called EGFR038G07-35GS-cAbLys3(D1E,Q5V,A6E,Q108L)-35GS-T0170056G05-FLAG3-HIS6
B2: in the experiment with EGFR on cells [5], the “IC50, xCELLigence human T cell mediated killing of LS174T cells, E:T 15, 30-40 h” value came out at 26 nM and the “IC50, xCELLigence human T cell mediated killing of LoVo cells, E:T 15, 30-40 h” value amounted to 1.5 nM. In the experiment with EGFR on cells [6], the half-maximal effective concentration (EC50) was found to be 6.3 nM and the Top worked out at 40800. In addition, in the experiment with EGFR on cells [7], a half-maximal response (EC50) required 2.4 nM and the Top turned out to be 95900. In the experiment with EGFR on cells [8], this molecule displayed an EC50 of 7.3 nM and a Top of 165000. Besides, in the experiment with EGFR on cells [9], the “IC50, xCELLigence human T cell mediated killing of HER14 cells, E:T 15, 50-60 h” value turned out to be 0.42 nM; the “IC50, xCELLigence human T cell mediated killing of LS174T cells, E:T 15, 50-60 h” value is 8.9 nM; the “IC50, xCELLigence human T cell mediated killing of LoVo cells, E:T 15, 50-60 h” value was found to be 0.6 nM.

B3: T017000103 (bispecific antibody)
chain: EVQLVESGGGLVQPGGSLRLSCVASGDVHKINFLGWYRQAPGKEREKVAHISIGDQTDYADSAKGRFTISRDESKNMVYLQMNSLKPEDTAVYFCRAFSRIYPYDYWGQGTLVTVSSGGGGSGGGGSGGGGSGGGGSGGGGSGGGGSGGGGSEVQLVESGGGLVQAGGSLRLSCAASGITFSINTMGWYRQAPGKQRELVALISSIGDTYYADSVKGRFTISRDNAKNTVYLQMNSLKPEDTAVYYCKRFRTAAQGTDYWGQGTLVTVSSGAADYKDHDGDYKDHDIDYKDDDDKGAAHHHHHH
For B3, in the experiment with HER2 on cells, the “IC50, xCELLigence based cytotoxicity (readout 18 h), MCF-7, human T cells, E/T 15:1” value turned out to be 0.059 nM and the “IC50, xCELLigence based cytotoxicity (readout 18 h), SKBR3, human T cells, E/T 15:1” value came to 0.0038 nM. Moreover, the “IC50, xCELLigence cynomolgus T cell mediated SKBR3 killing assay” value in [10] came out at 0.012 nM.

B4: T017000102 (bispecific antibody)
chain: EVQLVESGGGLVQAGGSLRLSCAASGITFSINTMGWYRQAPGKQRELVALISSIGDTYYADSVKGRFTISRDNAKNTVYLQMNSLKPEDTAVYYCKRFRTAAQGTDYWGQGTLVTVSSGGGGSGGGGSGGGGSGGGGSGGGGSGGGGSGGGGSEVQLVESGGGLVQPGGSLRLSCVASGDVHKINFLGWYRQAPGKEREKVAHISIGDQTDYADSAKGRFTISRDESKNMVYLQMNSLKPEDTAVYFCRAFSRIYPYDYWGQGTLVTVSSGAADYKDHDGDYKDHDIDYKDDDDKGAAHHHHHH
Take B4: in the experiment with HER2 on cells, the “IC50 (column head prints EC50), xCELLigence based cytotoxicity (readout 18 h), MCF-7, human T cells, E/T 15:1” value worked out at 0.12 nM and the “IC50, xCELLigence based cytotoxicity (readout 18 h), SKBR3, human T cells, E/T 15:1” value was 0.014 nM. Moreover, the “IC50, xCELLigence cynomolgus T cell mediated SKBR3 killing assay” value in experiment [10] turned out to be 0.046 nM.
